Data: the supplement of paper PMC11780869

Tested on: Bacillus subtilis
Assay: cleaved RNA product abundance (RNA/gDNA barcode ratio) relative to median wild-type variant (ratio to wild type); higher = more accumulation of the downstream cleavage product
Settings: cleavage site: cggR-gapA (positions -7 to +36 mutated)
Method in brief: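 Cleaved product abundance is expressed as the RNA:gDNA barcode ratio per construct, scaled to the median construct carrying the unmutated site. The constructs were barcoded, mutagenized RNase Y cleavage-site windows in truncated aprE or tetM reporter mRNAs integrated into the B. subtilis chromosome. Cultures grew in LB at 37°C from OD600 0.0003 to 0.3 before cleaved RNA was gel-selected and barcode-sequenced.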

[1] = experiment (reporter, strain, medium): exp 2b: truncated aprE reporter, strain BJT200
[2] = experiment (reporter, strain, medium): exp 4a: truncated aprE reporter, strain BJT201 with 2% xylose (RNase J1 expressed)
[3] = experiment (reporter, strain, medium): exp 6: tetM reporter, strain 168

Sequence: ACAGACGAAGGAGCCGCAAAGAAGTTATTAAGGGATGAATAATACCTCAATATAAAAATCTCTCACTTATTTAAA
- cleaved RNA product abundance [1]: 0.144
- cleaved RNA product abundance [2]: 0.179

Sequence: ACAGACGAAGGAGCCGCAAAGAAGTTATTAAGGGATGAATAATACCTCAATATAAACATCTCTCACTTATTTAAA
- cleaved RNA product abundance [2]: 0.108

Sequence: ACAGACGAAGGAGCCGCAAAGAAGTTATTAAGGGATGAATAATACCTCAATATAAATAACTCTCACTTATTTAAA
- cleaved RNA product abundance [1]: 0.144
- cleaved RNA product abundance [2]: 0.0774

Sequence: ACAGACGAAGGAGCCGCAAAGAAGTTATTAAGGGATGAATAATACCTCAATATAAATACCTCTCACTTATTTAAA
- cleaved RNA product abundance [2]: 0.162

Sequence: ACAGACGAAGGAGCCGCAAAGAAGTTATTAAGGGATGAATAATACCTCAATATAAATATCTCTCACTTATTAAAG
- cleaved RNA product abundance [2]: 0.148

Sequence: ACAGACGAAGGAGCCGCAAAGAAGTTATTAAGGGATGAATAATACCTCAATATAAATATCTCTCACTTATTTAAA
- cleaved RNA product abundance [1]: 0.117
- cleaved RNA product abundance [2]: 0.152
- cleaved RNA product abundance [3]: 0.151

Sequence: ACAGACGAAGGAGCCGCAAAGAAGTTATTAAGGGATGAATAATACCTCAATATAAATTTCTCTCACTTATTTAAA
- cleaved RNA product abundance [2]: 0.15

Sequence: ACAGACGAAGGAGCCGCAAAGAAGTTATTAAGGGATGAATAATACCTCAATATAATTATCTCTCACTTATTTAAA
- cleaved RNA product abundance [2]: 0.165

Sequence: ACAGACGAAGGAGCCGCAAAGAAGTTATTAAGGGATGAATAATACCTCAATATACATATCTCTCACTTATTTAAA
- cleaved RNA product abundance [2]: 0.123

Sequence: ACAGACGAAGGAGCCGCAAAGAAGTTATTAAGGGATGAATAATACCTCAATATAGATATCTCTCACTTATTTAAA
- cleaved RNA product abundance [2]: 0.147

Sequence: ACAGACGAAGGAGCCGCAAAGAAGTTATTAAGGGATGAATAATACCTCAATATATATATCTCTCACTTATTTAAA
- cleaved RNA product abundance [2]: 0.123

Sequence: ACAGACGAAGGAGCCGCAAAGAAGTTATTAAGGGATGAATAATACCTCAATATTAATATCTCTCACTTATTTAAA
- cleaved RNA product abundance [1]: 0.0803
- cleaved RNA product abundance [2]: 0.0425
- cleaved RNA product abundance [3]: 0.0694

Sequence: ACAGACGAAGGAGCCGCAAAGAAGTTATTAAGGGATGAATAATACCTCAATTTAAATATCTCTCACTTATTTAAA
- cleaved RNA product abundance [1]: 0.0845
- cleaved RNA product abundance [2]: 0.0904

Sequence: ACAGACGAAGGAGCCGCAAAGAAGTTATTAAGGGATGAATAATACCTCATTATAAATATCTCTCACTTATTTAAA
- cleaved RNA product abundance [2]: 0.117

Sequence: ACAGACGAAGGAGCCGCAAAGAAGTTATTAAGGGATGAATAATACCTCCATATAAATATCTCTCACTTATTTAAA
- cleaved RNA product abundance [1]: 0.069
- cleaved RNA product abundance [2]: 0.092

Sequence: ACAGACGAAGGAGCCGCAAAGAAGTTATTAAGGGATGAATAATACCTCGATATAAATATCTCTCACTTATTTAAA
- cleaved RNA product abundance [1]: 0.0828
- cleaved RNA product abundance [2]: 0.103

Sequence: ACAGACGAAGGAGCCGCAAAGAAGTTATTAAGGGATGAATAATACCTCTATATAAATATCTCTCACTTATTTAAA
- cleaved RNA product abundance [2]: 0.156

Sequence: ACAGACGAAGGAGCCGCAAAGAAGTTATTAAGGGATGAATAATACCTGAATATAAATATCTCTCACTTATTTAAA
- cleaved RNA product abundance [1]: 0.093
- cleaved RNA product abundance [2]: 0.107

Sequence: ACAGACGAAGGAGCCGCAAAGAAGTTATTAAGGGATGAATAATACCTTAATATAAATATCTCTCACTTATTTAAA
- cleaved RNA product abundance [2]: 0.424

Sequence: ACAGACGAAGGAGCCGCAAAGAAGTTATTAAGGGATGAATAATACGTCAATATAAATATCTCTCACTTATTTAAA
- cleaved RNA product abundance [1]: 0.0926
- cleaved RNA product abundance [2]: 0.0816

Sequence: ACAGACGAAGGAGCCGCAAAGAAGTTATTAAGGGATGAATAATACTTCAATATAAATATCTCTCACTTATTTAAA
- cleaved RNA product abundance [1]: 0.094
- cleaved RNA product abundance [2]: 0.111

Sequence: ACAGACGAAGGAGCCGCAAAGAAGTTATTAAGGGATGAATAATAGCTCAATATAAATATCTCTCACTTATTTAAA
- cleaved RNA product abundance [2]: 0.13

Sequence: ACAGACGAAGGAGCCGCAAAGAAGTTATTAAGGGATGAATAATATCTCAATATAAATATCTCTCACTTATTTAAA
- cleaved RNA product abundance [1]: 0.0986
- cleaved RNA product abundance [2]: 0.116

Sequence: ACAGACGAAGGAGCCGCAAAGAAGTTATTAAGGGATGAATAATCAATCAATATAAATATCTCTCACTTATTTAAA
- cleaved RNA product abundance [1]: 0.13
- cleaved RNA product abundance [2]: 0.107

Sequence: ACAGACGAAGGAGCCGCAAAGAAGTTATTAAGGGATGAATAATCACACAATATAAATATCTCTCACTTATTTAAA
- cleaved RNA product abundance [1]: 0.114
- cleaved RNA product abundance [2]: 0.142

Sequence: ACAGACGAAGGAGCCGCAAAGAAGTTATTAAGGGATGAATAATCACCCAATATAAATATCTCTCACTTATTTAAA
- cleaved RNA product abundance [2]: 0.129

Sequence: ACAGACGAAGGAGCCGCAAAGAAGTTATTAAGGGATGAATAATCACTAAATATAAATATCTCTCACTTATTTAAA
- cleaved RNA product abundance [2]: 0.142

Sequence: ACAGACGAAGGAGCCGCAAAGAAGTTATTAAGGGATGAATAATCACTCAAAATAAATATCTCTCACTTATTTAAA
- cleaved RNA product abundance [1]: 0.0846
- cleaved RNA product abundance [2]: 0.122

Sequence: ACAGACGAAGGAGCCGCAAAGAAGTTATTAAGGGATGAATAATCACTCAACATAAATATCTCTCACTTATTTAAA
- cleaved RNA product abundance [2]: 0.123

Sequence: ACAGACGAAGGAGCCGCAAAGAAGTTATTAAGGGATGAATAATCACTCAAGATAAATATCTCTCACTTATTTAAA
- cleaved RNA product abundance [1]: 0.0892

Sequence: ACAGACGAAGGAGCCGCAAAGAAGTTATTAAGGGATGAATAATCACTCAATAAAAATATCTCTCACTTATTTAAA
- cleaved RNA product abundance [2]: 0.0861

Sequence: ACAGACGAAGGAGCCGCAAAGAAGTTATTAAGGGATGAATAATCACTCAATATAAAAATCTCTCACTTATTTAAA
- cleaved RNA product abundance [2]: 0.136

Sequence: ACAGACGAAGGAGCCGCAAAGAAGTTATTAAGGGATGAATAATCACTCAATATAAAGATCTCTCACTTATTTAAA
- cleaved RNA product abundance [2]: 0.0885

Sequence: ACAGACGAAGGAGCCGCAAAGAAGTTATTAAGGGATGAATAATCACTCAATATAAATACCTCTCACTTATTTAAA
- cleaved RNA product abundance [2]: 0.061

Sequence: ACAGACGAAGGAGCCGCAAAGAAGTTATTAAGGGATGAATAATCACTCAATATAAATAGCTCTCACTTATTTAAA
- cleaved RNA product abundance [2]: 0.101

Sequence: ACAGACGAAGGAGCCGCAAAGAAGTTATTAAGGGATGAATAATCACTCAATATAAATATCTCTCACTTATTTAAA
- cleaved RNA product abundance [1]: 0.111
- cleaved RNA product abundance [2]: 0.14
- cleaved RNA product abundance [3]: 0.0875

Sequence: ACAGACGAAGGAGCCGCAAAGAAGTTATTAAGGGATGAATAATCACTCAATATAAATTTCTCTCACTTATTTAAA
- cleaved RNA product abundance [2]: 0.112

Sequence: ACAGACGAAGGAGCCGCAAAGAAGTTATTAAGGGATGAATAATCACTCAATATAATTATCTCTCACTTATTTAAA
- cleaved RNA product abundance [2]: 0.0768

Sequence: ACAGACGAAGGAGCCGCAAAGAAGTTATTAAGGGATGAATAATCACTCAATATACATATCTCTCACTTATTTAAA
- cleaved RNA product abundance [2]: 0.109

Sequence: ACAGACGAAGGAGCCGCAAAGAAGTTATTAAGGGATGAATAATCACTCAATATAGATATCTCTCACTTATTTAAA
- cleaved RNA product abundance [1]: 0.143
- cleaved RNA product abundance [2]: 0.116

Sequence: ACAGACGAAGGAGCCGCAAAGAAGTTATTAAGGGATGAATAATCACTCAATATATATATCTCTCACTTATTTAAA
- cleaved RNA product abundance [2]: 0.132

Sequence: ACAGACGAAGGAGCCGCAAAGAAGTTATTAAGGGATGAATAATCACTCAATATTAATATCTCTCACTTATTTAAA
- cleaved RNA product abundance [2]: 0.0358

Sequence: ACAGACGAAGGAGCCGCAAAGAAGTTATTAAGGGATGAATAATCACTCAATCTAAATATCTCTCACTTATTTAAA
- cleaved RNA product abundance [2]: 0.0379

Sequence: ACAGACGAAGGAGCCGCAAAGAAGTTATTAAGGGATGAATAATCACTCACTATAAATATCTCTCACTTATTTAAA
- cleaved RNA product abundance [1]: 0.0967
- cleaved RNA product abundance [2]: 0.0806

Sequence: ACAGACGAAGGAGCCGCAAAGAAGTTATTAAGGGATGAATAATCACTCAGTATAAATATCTCTCACTTATTTAAA
- cleaved RNA product abundance [2]: 0.0778

Sequence: ACAGACGAAGGAGCCGCAAAGAAGTTATTAAGGGATGAATAATCACTCGATATAAATATCTCTCACTTATTTAAA
- cleaved RNA product abundance [2]: 0.0689

Sequence: ACAGACGAAGGAGCCGCAAAGAAGTTATTAAGGGATGAATAATCACTCTATATAAATATCTCTCACTTATTTAAA
- cleaved RNA product abundance [1]: 0.0929
- cleaved RNA product abundance [2]: 0.155

Sequence: ACAGACGAAGGAGCCGCAAAGAAGTTATTAAGGGATGAATAATCACTGAATATAAATATCTCTCACTTATTTAAA
- cleaved RNA product abundance [1]: 0.0838
- cleaved RNA product abundance [2]: 0.0697

Sequence: ACAGACGAAGGAGCCGCAAAGAAGTTATTAAGGGATGAATAATCACTTAATATAAATATCTCTCACTTATTTAAA
- cleaved RNA product abundance [1]: 0.584
- cleaved RNA product abundance [2]: 0.498

Sequence: ACAGACGAAGGAGCCGCAAAGAAGTTATTAAGGGATGAATAATCAGTCAATATAAATATCTCTCACTTATTTAAA
- cleaved RNA product abundance [2]: 0.0967

Sequence: ACAGACGAAGGAGCCGCAAAGAAGTTATTAAGGGATGAATAATCATTCAATATAAATATCTCTCACTTATTTAAA
- cleaved RNA product abundance [1]: 0.171
- cleaved RNA product abundance [2]: 0.295

Sequence: ACAGACGAAGGAGCCGCAAAGAAGTTATTAAGGGATGAATAATCCAACAATATAAATATCTCTCACTTATTTAAA
- cleaved RNA product abundance [1]: 0.184
- cleaved RNA product abundance [2]: 0.174

Sequence: ACAGACGAAGGAGCCGCAAAGAAGTTATTAAGGGATGAATAATCCACCAATATAAATATCTCTCACTTATTTAAA
- cleaved RNA product abundance [1]: 0.186
- cleaved RNA product abundance [2]: 0.142

Sequence: ACAGACGAAGGAGCCGCAAAGAAGTTATTAAGGGATGAATAATCCATAAATATAAATATCTCTCACTTATTTAAA
- cleaved RNA product abundance [1]: 0.17
- cleaved RNA product abundance [2]: 0.261

Sequence: ACAGACGAAGGAGCCGCAAAGAAGTTATTAAGGGATGAATAATCCATCAAAATAAATATCTCTCACTTATTTAAA
- cleaved RNA product abundance [1]: 0.132
- cleaved RNA product abundance [2]: 0.221

Sequence: ACAGACGAAGGAGCCGCAAAGAAGTTATTAAGGGATGAATAATCCATCAACATAAATATCTCTCACTTATTTAAA
- cleaved RNA product abundance [1]: 0.164

Sequence: ACAGACGAAGGAGCCGCAAAGAAGTTATTAAGGGATGAATAATCCATCAATAAAAATATCTCTCACTTATTTAAA
- cleaved RNA product abundance [1]: 0.11
- cleaved RNA product abundance [2]: 0.107

Sequence: ACAGACGAAGGAGCCGCAAAGAAGTTATTAAGGGATGAATAATCCATCAATACAAATATCTCTCACTTATTTAAA
- cleaved RNA product abundance [2]: 0.0901
